Data: US20200079833A1 (AstraZeneca / MedImmune, published 2020)
Starred links: 1 amine or outer side, 2 acyl side, 3 side chain; linkers in the order of their positions; H or OH if unused. Non-standard residues stand in square brackets, D forms with d. Groups on a side chain read outwards from the residue. Primed or numbered codes have the meaning given here. No end group written: not given here. *: point of attachment. γGlu = O=C(O)[C@H](CCC(=O)[*:2])N[*:1]; Stearoyl = CCCCCCCCCCCCCCCCCC(=O)*; αMeF = C[C@](N)(Cc1ccccc1)C(=O)O; αMeK = C[C@](N)(CCCCN)C(=O)O; αMeS = C[C@](N)(CO)C(=O)O; PEG2′ = not defined here; Aib = CC(C)(N)C(=O)O

T1: glucose-dependent insulinotropic peptide (gastric inhibitory polypeptide) receptor (GIPR) (human, UniProt P48546 22-466)
T1 sequence (looked up): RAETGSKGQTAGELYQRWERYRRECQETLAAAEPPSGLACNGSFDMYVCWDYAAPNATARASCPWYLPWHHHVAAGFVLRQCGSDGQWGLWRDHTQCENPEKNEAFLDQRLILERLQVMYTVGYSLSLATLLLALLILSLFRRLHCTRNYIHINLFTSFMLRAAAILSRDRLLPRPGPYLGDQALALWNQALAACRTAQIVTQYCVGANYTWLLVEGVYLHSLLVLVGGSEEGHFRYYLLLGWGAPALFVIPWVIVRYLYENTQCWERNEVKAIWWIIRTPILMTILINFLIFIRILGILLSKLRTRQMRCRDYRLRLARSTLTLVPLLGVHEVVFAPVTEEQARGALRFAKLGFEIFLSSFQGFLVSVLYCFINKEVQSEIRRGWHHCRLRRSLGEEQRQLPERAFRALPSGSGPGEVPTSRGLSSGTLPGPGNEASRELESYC

B1: SEQ ID NO 126 (peptide)
peptide: H[Aib]K([PEG2′-PEG2′-γGlu-Stearoyl])GS[αMeF]TSDV[αMeS]S[αMeF]LEGEAA[αMeK]E[αMeF]IA[αMeF]VV[αMeK]GG-NH2
B2: SEQ ID NO 116 (peptide)
peptide: H[Aib]EGS[αMeF]TSDV[αMeS]SK([PEG2′-PEG2′-γGlu-Stearoyl])LEGEAA[αMeK]E[αMeF]IA[αMeF]VV[αMeK]GG-NH2
B3: SEQ ID NO 118 (peptide)
peptide: H[Aib]EGS[αMeF]TSDVK([PEG2′-PEG2′-γGlu-Stearoyl])S[αMeF]LEGEAA[αMeK]E[αMeF]IA[αMeF]VV[αMeK]GG-NH2
B4: SEQ ID NO 115 (peptide)
peptide: H[Aib]EGS[αMeF]TSDV[αMeS]S[αMeF]K([PEG2′-PEG2′-γGlu-Stearoyl])EGEAA[αMeK]E[αMeF]IA[αMeF]VV[αMeK]GG-NH2
B5: SEQ ID NO 113 (peptide)
peptide: H[Aib]EGS[αMeF]TSDV[αMeS]S[αMeF]LEK([PEG2′-PEG2′-γGlu-Stearoyl])EAA[αMeK]E[αMeF]IA[αMeF]VV[αMeK]GG-NH2
B6: SEQ ID NO 114 (peptide)
peptide: H[Aib]EGS[αMeF]TSDV[αMeS]S[αMeF]LK([PEG2′-PEG2′-γGlu-Stearoyl])GEAA[αMeK]E[αMeF]IA[αMeF]VV[αMeK]GG-NH2
B7: SEQ ID NO 121 (peptide)
peptide: H[Aib]EGS[αMeF]TK([PEG2′-PEG2′-γGlu-Stearoyl])DV[αMeS]S[αMeF]LEGEAA[αMeK]E[αMeF]IA[αMeF]VV[αMeK]GG-NH2
B8: SEQ ID NO 127 (peptide)
peptide: HK([PEG2′-PEG2′-γGlu-Stearoyl])EGS[αMeF]TSDV[αMeS]S[αMeF]LEGEAA[αMeK]E[αMeF]IA[αMeF]VV[αMeK]GG-NH2
B9: SEQ ID NO 123 (peptide)
peptide: H[Aib]EGSK([PEG2′-PEG2′-γGlu-Stearoyl])TSDV[αMeS]S[αMeF]LEGEAA[αMeK]E[αMeF]IA[αMeF]VV[αMeK]GG-NH2

Biological target: GLP-1 receptor (GLP-1R) (human, UniProt P43220 24-463)
Assay: cell-based or functional assay

Row | cAMP Mean pM GLP-1R [pM] | cAMP Primary assay EC50 GLP-1R n1 [nM] | cAMP Primary assay EC50 GLP-1R n2 [nM] | Binder
1 | 25400 | 25 | 25.4 | B1
2 | 9 | 0.0093 | 0.00912 | B2
3 | 783 | 0.81 | 0.758 | B3
4 | 6 | 0.006 | 0.00539 | B4
5 | 18 | 0.018 | 0.0174 | B5
6 | 503 | 0.55 | 0.458 | B6
7 | 25100 | 25 | 25.1 | B7
8 | 25100 | 25 | 25.1 | B8
9 | 4660 | 4.9 | 4.43 | B9

Biological target: glucagon receptor (GCGR) (human, UniProt P47871 26-477)
Sequence (P47871 26-477): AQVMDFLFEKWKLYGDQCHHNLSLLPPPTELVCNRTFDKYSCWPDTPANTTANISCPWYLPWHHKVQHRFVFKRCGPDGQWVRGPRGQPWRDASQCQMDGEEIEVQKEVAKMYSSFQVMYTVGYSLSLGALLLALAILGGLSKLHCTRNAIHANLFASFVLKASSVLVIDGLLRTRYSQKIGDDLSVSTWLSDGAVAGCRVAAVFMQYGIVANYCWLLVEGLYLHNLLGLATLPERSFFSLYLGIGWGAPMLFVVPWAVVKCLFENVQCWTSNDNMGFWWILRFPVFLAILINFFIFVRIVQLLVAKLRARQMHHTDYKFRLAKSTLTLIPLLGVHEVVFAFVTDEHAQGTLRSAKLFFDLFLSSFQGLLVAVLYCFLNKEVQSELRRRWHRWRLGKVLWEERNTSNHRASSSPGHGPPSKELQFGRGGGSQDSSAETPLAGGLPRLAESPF
Assay: cell-based or functional assay

Row | cAMP Primary assay EC50 Gluc-R [nM] | cAMP Primary assay EC50 Gluc-R (2nd) [nM] | Binder
10 | 25 | 25.4 | B1
11 | 26 | 25.6 | B2
12 | 25 | 25.2 | B3
13 | 25 | 25.3 | B4
14 | 25 | 24.9 | B5
15 | 25 | 25.4 | B6
16 | 25 | 25.1 | B7
17 | 25 | 25.1 | B8
18 | 26 | 25.6 | B9

Biological target: T1, glucose-dependent insulinotropic …
Assay: cell-based or functional assay

Row | cAMP Primary assay EC50 GIP-R [nM] | cAMP Primary assay EC50 GIP-R (2nd) [nM] | Binder
19 | 25 | 25.4 | B1
20 | 26 | 25.6 | B2
21 | 25 | 25.2 | B3
22 | 25 | 25.3 | B4
23 | 25 | 24.9 | B5
24 | 25 | 25.4 | B6
25 | 25 | 25.1 | B7
26 | 25 | 25.1 | B8
27 | 26 | 25.6 | B9
